Experimental data reported in the RNAGym collection of RNA variant scans (doi:10.7554/elife.80360).

B1: Hairpin Ribozyme (parent)
chain: GUCCUCUUUCACGUGCGCGUGAAAGAGAGAAGUGAACCAGAGAAACACACGUUGUGGUAUAUUACCUGGUA

Variants of: B1
Assay: self-cleavage, relative activity (ratio to wild type); higher = more cleavage; co-transcriptional

Variant	self-cleavage
A45C G54U	0.152
G42A U53C	0.388
G42A U53G	0.237
A43C U53C	0.163
A43C U53A	0.129
A45G G51A	0.161
A44U C50U	0.252
A44C A64C	0.0397
A44C A64G	0.141
A44C A64U	0.155
G42U C66A	0.162
A44G G56A	0.191
A44G G56C	0.0768
A43G C50A	0.131
A45U A49C	0.134
A45U A49G	0.165
A43U G69A	0.119
A43U G69C	0.119
A44U U55C	0.168
A44G U58C	0.0672
A44U C46U	0.193

Variant	self-cleavage
A44G U53G	0.112
A44G U53A	0.214
A44G U70G	0.135
A45U G56U	0.208
G42C U70G	0.145
A45U C50G	0.146
A43C G68A	0.176
A43C G68U	0.0938
A44U A47C	0.0912
G42U U70A	0.233
G42U U70C	0.162
A43C A47C	0.0231
A43C A47U	0.24
A44U G56A	0.191
A43U A47C	0.178
A45U C66U	0.117
A45U C66A	0.204
A44U A49C	0.0643
G42A C66U	0.147
A44G A47C	0.222
A44G A47U	0.163

Variant	self-cleavage
A44C C66G	0.0764
A44C C66U	0.107
A44C C66A	0.215
A44G G57A	0.123
A41U U70A	0.776
A41U U70G	1.1
A43G A49C	0.116
A43G A49U	0.197
A45C U52G	0.0239
A45C U52C	0.176
G42C C46U	0.12
A44C A61U	0.212
G42A G56C	0.105
G42C U58C	0.185
A44G A71G	0.117
G42C G51U	0.448
A44C G56C	0.0706
A45C C46A	0.152
A45C C46U	0.067
A43U A71C	0.396
A44U G54A	0.181

Variant	self-cleavage
A43G A44U	0.207
A44G C65G	0.192
A43C U55G	0.148
A44U U60C	0.103
G42C A44U	0.174
G42C A44C	0.0939
G42C A44G	0.137
A43C C48G	0.0498
A43C U60A	0.162
A43C U60G	0.0932
A45U G54U	0.0699
A45U G54C	0.23
A45U G54A	0.138
A45G G68A	0.122
A45G G68U	0.223
A43U A49C	0.173
A45G A49C	0.103
A43U U52A	0.229
A44C U70G	0
A44G C50U	0.134
A44G C50A	0.198
